Experimental data published in article PMC9490022, “Enhanced salt-tolerance of Bacillus subtilis glutaminase by fusing self-assembling amphipathic peptides at its N-terminus” (Frontiers in Bioengineering and Biotechnology, 2022).

Substrate: NC(=O)CC[C@H](N)C(=O)O
Assay: purified protein
Type: biochemical, Bacillus subtilis
Settings: 10–100 mM L-glutamine, 20 mM potassium phosphate, pH 7.5, 37°C, no NaCl

Protein	Km	kcat	kcat/Km
E3C/E55F/D213T (Bacillus subtilis subsp. subtilis str. 168; D213T/E3C/E55F) (protein, full-length triple mutant, N-terminal His-tag kept, expressed in B. subtilis WB600 (pP43NMK), about 40 kDa) MKCLIKEHQKDINPALQLHDWVEYYRPFAANGQSANYIPALGKVNDSQLGICVLFPDGTMIHAGDWNVSFTMQSISKVISFIAACMSRGIPYVLDRVDVEPTGDAFNSIIRLEINKPGKPFNPMINAGALTIASILPGESAYEKLEFLYSVMETLIGKRPRIHEEVFRSEWETAHRNRALAYYLKETNFLEAEVEETLEVYLKQCAMESTTETIALIGLILAHDGYHPIRHEQVIPKDVAKLAKALMLTCGMYNASGKYAAFVGVPAKSGVSGGIMALVPPSARREQPFQSGCGIGIYGPAIDEYGNSLTGGMLLKHMAQEWELSIF	22.72 ± 1.5 mM	3730 ± 190 s⁻¹	162000 ± 3240 M⁻¹ s⁻¹
EAK16-E3C/E55F/D213T (Bacillus subtilis subsp. subtilis str. 168; D213T/E3C/E55F) (protein, N-terminal His-tag, designed peptide EAK16 (…) and PT linker (…) fused to N-terminus of triple mutant; expressed in B. subtilis WB600; oligomerises) KCLIKEHQKDINPALQLHDWVEYYRPFAANGQSANYIPALGKVNDSQLGICVLFPDGTMIHAGDWNVSFTMQSISKVISFIAACMSRGIPYVLDRVDVEPTGDAFNSIIRLEINKPGKPFNPMINAGALTIASILPGESAYEKLEFLYSVMETLIGKRPRIHEEVFRSEWETAHRNRALAYYLKETNFLEAEVEETLEVYLKQCAMESTTETIALIGLILAHDGYHPIRHEQVIPKDVAKLAKALMLTCGMYNASGKYAAFVGVPAKSGVSGGIMALVPPSARREQPFQSGCGIGIYGPAIDEYGNSLTGGMLLKHMAQEWELSIF	18.45 ± 1.2 mM		174000 ± 4200 M⁻¹ s⁻¹
